Target: T1, CHO cell sialidase (Cricetulus griseus, UniProt Q64393)
T1 construct: The sialidase described was purified from the cell culture fluid of a single production cell line (CHO 14.16); endogenous in cells; host or cells: CHO 14.16 cells (purified from the cell culture fluid)
Assay: Sialidase kinetic constants with soluble sialylglycoconjugate substrates
Type: biochemical, Chinese hamster
Procedure: Fluorescent sialidase assays: Standard assay conditions for monitoring the enzyme activity during purification using the fluorescent substrate analog are: 1.3 mM 4-MUNeu5Ac, 50 mM phosphate buffer, pH 6.8, 0.3 mg bovine serum albumin and varying amounts of enzyme in a total volume of 30 μl. After addition of enzyme the samples are incubated at 37° C. in a shaking water bath for 5 minutes. The reaction is terminated and the fluorescence of the liberated umbelliferone is enhanced by the addition of 2 ml of 80 mM glycine-carbonate buffer, pH 9.7. Quantification of the product is made by measuring the fluorescence of the samples with excitation at 365 nm and emission at 450 nm using a standard of 4-methyl umbelliferone. A unit of enzyme activity is defined as a μmol/min of sialic acid liberated.
Sialidase assays with natural substrates: When natural substrates are tested with the purified enzyme, the amount of released sialic acid is measured using the thiobarbituric acid assay as modified by Uchida [Uchida et al. J. Biochem., 82:1425 (1977)] using sialic acid as standard. […] All samples are cleared by centrifugation (1,000×G, 10 min) prior to determining the absorbance at 540 nm.
Enzyme kinetic parameters: Assay conditions (time and added enzyme) are modified for each substrate so that initial reaction rates are measured. […]

T1 sequence (Q64393 whole entry): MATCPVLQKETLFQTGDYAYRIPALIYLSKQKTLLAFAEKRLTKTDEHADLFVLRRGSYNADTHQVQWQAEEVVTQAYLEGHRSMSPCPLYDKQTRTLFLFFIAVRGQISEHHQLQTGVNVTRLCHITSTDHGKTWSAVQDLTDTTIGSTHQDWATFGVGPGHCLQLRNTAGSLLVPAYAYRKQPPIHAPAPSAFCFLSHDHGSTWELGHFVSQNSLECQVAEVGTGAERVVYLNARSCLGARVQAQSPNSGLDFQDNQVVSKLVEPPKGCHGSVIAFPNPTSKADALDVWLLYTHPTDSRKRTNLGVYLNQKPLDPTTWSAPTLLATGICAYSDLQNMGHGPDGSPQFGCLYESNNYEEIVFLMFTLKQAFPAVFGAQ

B1: rDeoxyribonuclease 1: encoded by a human-derived nucleotide sequence, was expressed in Chinese hamster ovary cells (protein, UniProt P24855 23-282, looked up)
Deoxyribonuclease-1: LKIAAFNIQTFGETKMSNATLVSYIVQILSRYDIALVQEVRDSHLTAVGKLLDNLNQDAPDTYHYVVSEPLGRNSYKERYLFVYRPDQVSAVDSYYYDDGCEPCGNDTFNREPAIVRFFSRFTEVREFAIVPLHAAPGDAVAEIDALYDVYLDVQEKWGLEDVMLMGDFNAGCSYVRPSQWSSIRLWTSPTFQWLIPDSADTTATPTHCAYDRIVVAGMLLRGAVVPDSALPFNFQAAYGLSDQLAQAISDHYPVEVMLK
In the case of B1, the Vmax (apparent, standard assay conditions, average of duplicates, relative error about 10%) is reported as 12 µmol/min/mg and the “Km values compared (in words)” value (transferrin versus deoxyribonuclease I) is reported as “nearly identical”.
